According to the DeepSol protein solubility set:

Test: soluble on expression in E. coli; label from the status in PepcDB or PDB records

Sequence	soluble on expression in E. coli
MSLTTENQNPLVLDKNEEISQQKADDIRLQLRQEPEVKRLAQQIDVKNQMELLEYGKEPAVEISKFSDRILGMMKTTSVTDSGTMLTQLGKIMDRFDKNDFDEPKGLMAKIFKRGGSMIEKIFKKYQTLGGEIEKIHVEISKYKDEMTKTNYTLDEMYENNIKYYMELEKYVVAGQMKLEEMQSILPSYEEKAASGNQLAQMQLDTLRNGIQALEERVYDLDMARMVALQTAPQIRLLQRGNAKLIGKINSAFIITIPIFKNGIIQAVTVKRQKLVADSMSELDRRTNEMLKRNAENISSQSVEIARMAGRPSIDIETIESSWNTIVSGMQETKQIEEENKRLREDGARRIAQLQDNIKKAALQQEGHHHHHH	not soluble
MATNAKPVYKRILLKLSGEALQGTEGFGIDASILDRMAQEIKELVELGIQVGVVIGGGNLFRGAGLAKAGMNRVVGDHMGMLATVMNGLAMRDALHRAYVNARLMSAIPLNGVCDNYSWAEAISLLRNNRVVILSAGTGNPFFTTDSAACLRGIEIEADVVLKATKVDGVFTADPAKDPSATMYDQLTYSEVLDKELKVMDLAAFTLARDHKLPIRVFNMNKPGALRRVVMGEKEGTLITELEHHHHHH	not soluble
MKEKISEKEYKALIRKTGKEHFDGEKEEYGDGTVGVWTYELRKYKLKPPVKVKYVTQEQFQEYKDSNNQRLIKIENKVDKLVEIVQIHGEQIKAQGETLQLILQTLQKMSDRLDKMEKRIDKLESKLEHHHHHH	not soluble
GPGSMAKRDKRRTSLVQQNFDSLKRFYAISPFAAAERATLPPVYSGVYSRRAAMNSYHVVGSSRDQIVLEAMRTFTPSVCTKEVMDLYLEVAALVSLYFDTKEQLLALPDV	not soluble
SLKYVDEFRNGDYAKTLVRLIQKLTKKKINIMEICGSHTMAIFRYGIKDILPSNIRLISGPGCPVCVTSQGYIDTALELSLSREVIIATFGDMIRVPGTKTSLMKRKAEGADIKIVYSPMDALTLAENNPLKKVVFLSVGFETTTPITAITILEAKKRGVKNIFFLTSNKMVPPVMRTLVEDKELNITGFLLPGNVSAIIGKKPYEFLSSEYNVSGVVTGFEPLDILKGLKVLIDIINNNASVIVNEYKRVVRDEGNVTALRYIKEVFEVTDSTWRGIGNIEKSGYKINTEYEQFDAVKQFNINYKECDSSSECRCGDILKGKITPIECSLFKKACTPDHPVGSCMVSYEGVCAAYYKFLNT	soluble
MTLVASSENTGLCPMTFDDSSGQTSHMLFQRLQYQRKTGRFCDVEIVVQNKSFAAHRNILAAHSPYFDAIFKYCKITKEQLTINSKSPQVFELFLNYMYSGTVIIDRSSVSELLRFANNFLIVKLKVYCAAYLDRYLDAANCLSIRTLAQRYNLPGLVKSATDYFDSNLNRCLLESRDIIGYTYTQLTRLIGDPKYVDCITSDTYLKLIVRWVGEEVSKREEIFRLLLESCEFREVSADTLEFLLDYSPLLSKSQKSRFLLLHVMETNNMLMEKYSTQLSSLRQKIVDLPILHDPSQFEDDIYDSSDSEEDPDDYIADGHPTSAQVVEYGNDVNNRLKMKIAFQPGNEKKRLKRPKGMKKHHLHPIPPINATENESIPWIDEDEIDGVYATCSLEGCHTYGPVDNLDPDDCEDEEDQPDENGPSTCIFCGLRTANEELLEKHKARHHNRNTYYMCHLCEFETNWSKQFYLHCAEHWTEIPYRCETCPFTSNEIQEFLTHRLQHTDERFFKCGECAWKGRTRSQLFAHERMHSVLDDRSLHCEECGRGFQQHSTLDHHVASHNDPRPYICEDCGFATKTADHLSLHRRQHTGDNFSCHIAGCDYSSTKKSQLAAHLRTHMAVRAHLCKICGRGFIEKSHLVRHERIHLEEKPFKCDQCEYASSRRDKLKEHIIKHHNSEVLTFQKTQRRKYKRQRMLAAASNIVNNPDALFRPITSDDAVSNWQATNDFSTYSPNPNDYGGPSTYGNPSSPQRAFSVVHPSQHQHHAQSPGCMSMMNVPLRDNHHQMQRQDSPGDSVGGGQGGGGGGGPEGSDNTHGVLMTPNLVMRSPHNRSAVQPQFNNLSTNSDPQQQQQQQQLRPFSLPTYGQMDLAQAAQLQQLQQQLQAAGLPPTGTPNNQDNSNNAWNPWNVQ	not soluble
MKDTLGFEHADRSLYYRFRNSLSSNLHLTHFDIETKLEVAKKFNLILNDQFVKDLNSTMNLIFEPNGCLASYTWKTDFLDYTLNPMELIIPYQSVIPSKTVPYRKRRMNDLEDLRKIKECSKRAFISNSDQSEVPSTSMLNSMKEMITEAVETSNKKLIEELKTSNEALVAQVANFKSKHIEQSSGKPGMRAYLEGLKGFLHHLNMPELADIKVRLNTLEKDLGDTDQPIPVQSIHSVLDIGLKLIGG	not soluble
MSLAEKPIKLGVLEDQSGDFAVATIGKVHAIQLAADEINKAGGIMGRPLELVVYDTQSDNTRYQEFMRRVLQRDKADAVFAGFSSASREAYRPIVDQLNGLAFYNNQYEGGVCDGHMIVTGAVPEQQFSTLIPWMMEKYGKKVYTLAADYNFGQISAEWVRNIVKQHGGEMAGVEFIPLGVSQFSQSIQNIQKAKPDFVVTLLVGTAQASYYEQAASANVNLPMASSVNVGQGYEHKRFKPPSLKDMYVTTNYIEEIDSPQSKAFLAKFKAKFPNEPYVNQEAENSYLAVYLYKQMVERAKSTNRDEIRKVIAQGDVCMDAPEGKVCIDPKSQHMSHTIYLAHVNADHSIDFPKVWPDIKPYWLGEAGCDLTKKDPMAQYTPSNEGHHHHHH	soluble
MVLPKSKNQIGLGRAIQSDFTKNRRNRKGGLKHIVDSDPKAHRAALRSVTHETDLDEFLNTAELGEVEFIAEKQNVTVIQNPEQNPFLLSKEEAARSKQKQEKNKDRLTIPRRPHWDQTTTAVELDRMERESFLNWRRNLAQLQDVEGFIVTPFERNLEIWRQLWRVIERSDVVVQIVDARNPLFFRSAHLEQYVKEVGPSKKNFLLVNKADMLTEEQRNYWSSYFNENNIPFLFFSARMAAEANERGEDLETYESTSSNEIPESLQADENDVHSSRIATLKVLEGIFEKFASTLPDGKTKMTFGLVGYPNVGKSSTINALVGSKKVSVSSTPGKTKHFQTINLSEKVSLLDCPGLVFPSFATTQADLVLDGVLPIDQLREYTGPSALMAERIPKEVLETLYTIRIRIKPIEEGGTGVPSAQEVLFPFARSRGFMRAHHGTPDDSRAARILLKDYVNGKLLYVHPPPNYPNSGSEFNKEHHQKIVSATSDSITEKLQRTAISDNTLSAESQLVDDEYFQENPHVRPMVKGTAVAMQGPVYKGRNTMQPFQRRLNDDASPKYPMNAQGKPLSRRKARQLTALELGVSPEALSSATSKKHNKKNKRSKQRSGVVIDDY	soluble
MAKGGKSPKGKKITLNVAKNCIKITFDGRKRLDLSKMGITTFPKCILRLNEIDELDLSRNMIRKIPDSISKFQNLRWLDLHSNYIDKLPESIGQMTSLLFLNVSNNRLTTNGLPVELNQLKNIRTVNLGLNHLDSVPTTLGALKELHEVGLHDNLLTSIPAGISKLPKLKKLNVKRNPFPKPDESDMFVDSIKRLENLYLVEEKDLCSSCLQKCQQARDKLNKIRSMAPSAPRKAIFSNLVSPNSTAKESQEEWSV	not soluble
MGGSHHHHHHGMASALAQVAMSTLPVEDEESSESRMVVTFLMSALESMCKELAKSKAEVACIAVYETDVFVVGTERGRAFVNTRKDFQKDFVKYCVEEEEKAAEMHKMKSTTQANRMSVDAVEIETLRKTVEDYFCFCYGKALGKSTVVPVPYEKMLRDQSAVVVQGLPEGVAFKHPENYDLATLKWILENKAGISFIIKRPFLEPKKHVGGRVMVTDADRSILSPGGSCGPIKVKTEPTEDSGISLEMAAVTVKEESEDPDYYQYNIQGSHHSSEGNEGTEMEVPAEG	not soluble
MNMKNELHVISNGHMPFEELVNVAMQIESEIDYLHIREREKSTKELYEGVESLLMEGFPASKIVINDRIDIAILLNIPRVQLGYRSTDVKSVKEKFSYLHVGYSVHSLDEAIVAFKNGADSLVYGHVFPTDCKKGVPARGLEEISDIARCLSIPITAIGGITPENTVDVLTNGVSGIAVMSGIVSSSNPYSKAKSYKESIRKWAEKHV	not soluble
ATPAPAAEMPGITIISASQTGNARRVAEALRDDLLAAKLNVKLVNAGDYKFKQIASEKLLIVVTSTQGEGEPPEEAVALHKFLFSKKAPKLENTAFAVFSLGDTSYEFFCQSGKDFDSKLAELGGERLLDRVDADVEYQAAASEWRARVVDALKSRAPVAAPSQSVA	soluble
MIEQPDSKSAKPLYKQLEAALKEAIARGEYKPGQQIPTENELSVRWQVSRVTVRKALDALTRENLLTRVSGKGTFVSGEKFQRSMTGIMSFSELCQSQGRRPGSRTIKSVFESVDDETKALLNMNDGEKAVVIERIRYADDVAVSLETVHLPPRFAFLLDEDLNNHSLYECLREKYHLWFTHSRKMIELVYASFEVAHYLGVNEGYPLILIKSEMIDNKGELSCVSQQLIVGDKIRFTV	not soluble
MSLNKVRLGIIGLGAQGGTYAGFINDNKIANLELGAICDIDPEKRTVAAEKYPNVPFYDNYIDMLESGDVDAIVTTVPHYLHTEIGKEALSRDIHALLEKPGDIYAEKVKEISDLAASKPNLTFGIFFNQRTNPLYQKVKSLIDNGEIGEIRRTNWIITTWWRPQAYYDQSSWRATWSGEGGGVLVNQAPHQIDLLQWLCGLPKKVYANVKYGYQRDLNVDDDVTTVLDYGNGATGVFITCTHDIIGTDRLEITGDKGKILVEDSKKITLKSLNQSETQMNQDMTWEEVAELFKGNGMGDIYKEETFEFESVWGQQHISVLENFTANILDGTPLIAPGSDGINEGHHHHHH	soluble
MGSSHHHHHHSSGLVPRGSHMSQFSFTKMHGLGNSYIYVNMFEEQIPEEDLALVAEKVSNINTGIGADGMILICPSDVAPVKMRMFNNDGSEGKSCGNGLRCVAKYAYEHKLVEDTVFTIETLAGIVTAEVTVEEGKVTLAKIDMGAPRLTRAEIPMLGEGETPFIRENFLYNNHRYAFTAVSMGNPHAVIFVDDVEQAPLTTLGPVLETHEMFPERVNVEFIEILNEEEMNFRVWERGSGVTQACGTGACAAVVASILNGKMERGKEITVHLAGGDLMIAWTEEGNVLMKGPAEVICRGVYEYKIEA	soluble
MRVAIPAEDDRGIKSNVSKHFGRSRYFVFVDIEGEDVKNVEVVEVPFEEHGPGDLPNFIKDHGAKIVLTYGIGRRAIEYFNSLGISVVTGVYGRISDVIKAFIGGKLKIDYDWKEKIEKEH	soluble
CHETTTVALPESIGVGKGTTTLEDFENADAIFIIGQNPGSNSPRMMSELHAAAKRGASIISFNPLREKALVRFASPQDPRDMLSLHGVEISSQYHQVRIGGDMIALQGVCKAVIEADDVARREHLPRVLDVAFIEEHTHGFEQYADYCRQLPWDLIESHSGLTRQAIEDVAAVYRRSERVICCWGMGVTQHKRGGDAVQQIINLLLLRGNIGKLGAGACPVRGHSNVQGDRTMGIYEKAGEPFLASMSKVFGFEA	not soluble
MGSDKIHHHHHHMKEIVTVGVDIAKNVFQVHGVDAQGVVVVRRKLRRSKVSGFFESLPPCLIGIEACATAHHWARHLMALGHEVKLMPAAYVKPYVKRQKNDAADAEGICEAVQRPTMRFVPVKSKEQQGVLMLHRARELLVRQRTMLINALRAHLAELGIATRLGPMGVKDAVAVIEGIDQHLIPEIVQHALSPLCDQLRHVHTKIEEMDRQILEWHRSSALSQRLATIPGIGPVTASAIAATITDVSSFRSGRQLAAWIGLVPRQSSSGGKERLGRITRQGDPYIRRLLVIGAAL	not soluble
